We go through 4 molecules from publication PMC8122577, “Estrogen-Related Receptor Influences the Hemolymph Glucose Content by Regulating Midgut Trehalase Gene Expression in the Last Instar Larvae of Bombyx mori”.

Data set [1] addresses T1, BmERR DBD (Bombyx mori, UniProt A0A1B1M0R7 103-178).
T1 sequence: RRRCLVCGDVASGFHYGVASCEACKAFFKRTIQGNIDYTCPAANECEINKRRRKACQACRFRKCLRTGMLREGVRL
The experiment in a line: EMSA; dose-dependent; reduced by anti-BmERR antibody or competitive probe; EMSA (Beyotime chemiluminescent kit), 25 °C 20 min; 5% native PAGE in 45 mM Tris-borate, 1 mM EDTA pH 8.3; binding buffer not given. The following applies: protein: recombinant; label: 3'-end biotin; blunt.

Data set [2] deals with T1, BmERR DBD. Nature of the data set: EMSA; inhibited by competitive probe; EMSA (Beyotime chemiluminescent kit), 25 °C 20 min; 5% native PAGE in 45 mM Tris-borate, 1 mM EDTA pH 8.3; binding buffer not given. The conditions noted are these: protein: recombinant; label: 3'-end biotin; blunt.

B1: ERRE-like CRE 4 (dsDNA)
DNA 1: CGATACAAGGTCAACGAGA
DNA 2: TCTCGTTGACCTTGTATCG
Regarding B1, the binding result with BmERR DBD [1] was “binds”.

B2: ERRE-like CRE 6 (dsDNA)
DNA 1: GCCTACAAGGGCAATAAAA
DNA 2: TTTTATTGCCCTTGTAGGC
B2: the binding result with BmERR DBD [2] is recorded as “binds”.

B3: ERRE-like CRE 2 (dsDNA)
DNA 1: CATTGGTGACCTACATGGC
DNA 2: GCCATGTAGGTCACCAATG
Take B3: in the data set with BmERR DBD [2], the binding result was “binds”.

B4: ERRE-like CRE 1 (dsDNA)
DNA 1: GGGTTCTGACCTCGGAGGG
DNA 2: CCCTCCGAGGTCAGAACCC
Take B4: the binding result in the data set with BmERR DBD [2] is “binds”.
